Substitutions are numbered along the chain they refer to.

B1: bispecific antibody PR002883 targeting B7H4xCD3 (bispecific antibody)
heavy 1: QAVVTQEPSLTVSPGGTVTLTCRSSTGAVTTSNYANWVQQKPGQAPRGLIGGTNKRAPWTPARFSGSLLGDKAALTLLGAQPEDEAEYFCALWYSNLWVFGGGTKLTVLGGGQSGQGGSGGGGSEVQLVESGGGLVQPGGSLKLSCAASGFTFNTYAMNWVRQASGKGLEWVGRIRSKYNNYATYYADSVKDRFTISRDDSKSTLYLQMNSLKTEDTAVYYCVRHGNFGNSYVSWFAYWGQGTLVTVSSASEPKSSDKTHTCPPCPAPEAAGGPSVFLFPPKPKDTLMISRTPEVTCVVVDVSHEDPEVKFNWYVDGVEVHNAKTKPREEQYNSTYRVVSVLTVLHQDWLNGKEYKCKVSNKALGAPIEKTISKAKGQPREPQVYTLPPCREEMTKNQVSLWCLVKGFYPSDIAVEWESNGQPENNYKTTPPVLDSDGSFFLYSKLTVDKSRWQQGNVFSCSVMHEALHNHYTQKSLSLSPGK
heavy 2: EVQLVQSGAEVKKPGASVKVSCKASGYTFTSYWIGWVRQAPGQGLEWIGDIYPGGGYTNYNEKFKGRVTITRDTSTSTAYLELSSLRSEDTAVYYCARLAGSSYRGAMDSWGQGTLVTVSSASTKGPSVFPLAPSSKSTSGGTAALGCLVKDYFPEPVTVSWNSGALTSGVHTFPAVLQSSGLYSLSSVVTVPSSSLGTQTYICNVNHKPSNTKVDKKVEPKSCDKTHTCPPCPAPEAAGGPSVFLFPPKPKDTLMISRTPEVTCVVVDVSHEDPEVKFNWYVDGVEVHNAKTKPREEQYNSTYRVVSVLTVLHQDWLNGKEYKCKVSNKALGAPIEKTISKAKGQPREPQVCTLPPSREEMTKNQVSLSCAVKGFYPSDIAVEWESNGQPENNYKTTPPVLDSDGSFFLVSKLTVDKSRWQQGNVFSCSVMHEALHNHYTQKSLSLSPGK
light: DIQMTQSPSSLSASVGDRVTITCKASQGFNKYVAWYQQKPGKAPKLLIYYTSTLQPGVPSRFSGSGSGRDYTLTISSLQPEDFATYYCLQYGDLLYAFGQGTKVEIKRTVAAPSVFIFPPSDEQLKSGTASVVCLLNNFYPREAKVQWKVDNALQSGNSQESVTEQDSKDSTYSLSSTLTLSKADYEKHKVYACEVTHQGLSSPVTKSFNRGEC
notes: asymmetric three-chain structure, LALAPG; SDS-PAGE purity 70% after one-step purification; also called B7H4×CD3 bispecific antibody
B2: bispecific antibody PR002885 targeting ROR1xCD3 (bispecific antibody, human IgG1, kappa, L234A L235A)
heavy 1: B1 heavy 1
heavy 2: EVQLVESGGGLVQPGRSLRLSCTASGSDINDYPITWVRQAPGQGLEWIGFINSGGSTWYASWVKGRFTISRDDSKSIAYLQMNSLKTEDTAVYYCARGYSTYYRDFNIWGQGTLVTVSSASTKGPSVFPLAPSSKSTSGGTAALGCLVKDYFPEPVTVSWNSGALTSGVHTFPAVLQSSGLYSLSSVVTVPSSSLGTQTYICNVNHKPSNTKVDKKVEPKSCDKTHTCPPCPAPEAAGGPSVFLFPPKPKDTLMISRTPEVTCVVVDVSHEDPEVKFNWYVDGVEVHNAKTKPREEQYNSTYRVVSVLTVLHQDWLNGKEYKCKVSNKALGAPIEKTISKAKGQPREPQVCTLPPSREEMTKNQVSLSCAVKGFYPSDIAVEWESNGQPENNYKTTPPVLDSDGSFFLVSKLTVDKSRWQQGNVFSCSVMHEALHNHYTQKSLSLSPGK
light: DIQMTQSPSSLSASVGDRVTINCQASQSIDSNLAWFQQKPGQPPKLLIYRASNLASGVPDRFSGSGSGTDFTLTISSLEAEDVATYYCLGGVGAVSYRTSFGGGTKVEIKRTVAAPSVFIFPPSDEQLKSGTASVVCLLNNFYPREAKVQWKVDNALQSGNSQESVTEQDSKDSTYSLSSTLTLSKADYEKHKVYACEVTHQGLSSPVTKSFNRGEC
notes: asymmetric three-chain structure, LALAPG; SDS-PAGE purity 70% after one-step purification; also called ROR1×CD3 bispecific antibody
B3: SP34 murine-human chimeric recombinant antibody PR000260 (antibody, human IgG1, lambda, L234A L235A, V domains shown)
VH: EVQLVESGGGLVQPKGSLKLSCAASGFTFNTYAMNWVRQAPGKGLEWVARIRSKYNNYATYYADSVKDRFTISRDDSQSILYLQMNNLKTEDTAMYYCVRHGNFGNSYVSWFAYWGQGTLVTVSA
VL: QAVVTQESALTTSPGETVTLTCRSSTGAVTTSNYANWVQEKPDHLFTGLIGGTNKRAPGVPARFSGSLIGDKAALTITGAQTEDEAIYFCALWYSNLWVFGGGTKLTVLG
notes: IgG1 LALA, lambda; made in HEK293; also called SP34 chimeric antibody; PR000260(SP34)
B4: PR000511 (antibody, human IgG1, lambda, L234A L235A, V domains shown)
VH: EVQLLESGGGLVQPGGSLRLSCAASGFTFNTYAMNWVRQAPGKGLEWVSRIRSKYNNYATYYADSVKDRFTISRDDSKSTLYLQMNSLRAEDTAVYYCVRHGNFGNSYVSWFAYWGQGTLVTVSS
VL: QAVVTQEPSLTVSPGGTVTLTCRSSTGAVTTSNYANWVQQKPGQAPRGLIGGTNKRAPWTPARFSGSLLGDKAALTLLGAQPEDEAEYFCALWYSNLWVFGGGTKLTVLG
notes: humanized SP34 variant, IgG1 LALA; also called VH3231/VL7461 IgG
B5: PR000513 (antibody, human IgG1, kappa, L234A L235A, V domains shown)
VH: B4 VH
VL: DAQMTQSPSSLSASVGDRVTITCRSSTGAVTTSNYANWVQQKPGKAPKGLIGGTNKRAPGVPSRFSGSLSGDDATLTISSLQPEDFATYFCALWYSNLWVFGGGTKVEIKR
notes: humanized SP34 variant, IgG1 LALA; also called VH3231/VK1393 IgG
B6: PR001849 (antibody, human IgG1, lambda, L234A L235A, V domains shown)
VH: B4 VH with L5V, R19K, N30S, P41S, S49G, R89K, A90T
VL: B4 VL
notes: humanized SP34 variant, IgG1 LALAPG; also called VH3732/VL7461 IgG
B7: PR002834 (antibody, human IgG1, lambda, L234A L235A, V domains shown)
VH: B4 VH with N30S, V99A, R100K
VL: B4 VL
notes: humanized SP34 variant, IgG1 LALAPG; also called VH3235/VL7461 IgG
B8: PR002469 (antibody, human IgG1, lambda, L234A L235A, V domains shown)
VH: B4 VH with D76N, S79N, V99A, R100K
VL: B4 VL
notes: humanized SP34 variant, IgG1 LALA; also called VH3230/VL7461 IgG
B9: PR002835 (antibody, human IgG1, lambda, L234A L235A, V domains shown)
VH: B4 VH with N30S, D76N, V99A
VL: B4 VL
notes: humanized SP34 variant, IgG1 LALAPG; also called VH3236/VL7461 IgG
B10: PR003886 (antibody, human IgG1, lambda, L234A L235A, V domains shown)
VH: B4 VH with L5V, R19K, N30S, P41S, S49G, S79N, L81A, R89K, A90T, V99T
VL: B4 VL
notes: humanized SP34 variant, IgG1 LALA; also called VH3735/VL7461 IgG
B11: PR000514 (antibody, human IgG1, kappa, L234A L235A, V domains shown)
VH: B4 VH with L5V, R19K, P41S, S49G, R89K, A90T
VL: B5 VL
notes: humanized SP34 variant, IgG1 LALA; also called VH3731/VK1393 IgG
B12: PR002836 (antibody, human IgG1, lambda, L234A L235A, V domains shown)
VH: B4 VH with L5V, R19K, N30S, P41S, S49G, R89K, A90T, V99T
VL: B4 VL
notes: humanized SP34 variant, IgG1 LALAPG; also called VH3733/VL7461 IgG
B13: PR001848 (antibody, human IgG1, lambda, L234A L235A, V domains shown)
VH: B4 VH with N30S
VL: B4 VL
notes: humanized SP34 variant, IgG1 LALAPG; also called VH3232/VL7461 IgG
B14: PR004616 (antibody, human IgG1, lambda, L234A L235A, V domains shown)
VH: B4 VH with N30S, D76N, S79N, V99A, R100K
VL: B4 VL
notes: humanized SP34 variant, IgG1 LALA; also called VH3233/VL7461 IgG
B15: PR002472 (antibody, human IgG1, kappa, L234A L235A, V domains shown)
VH: B4 VH with D76N, S79N, V99A, R100K
VL: B5 VL
notes: humanized SP34 variant, IgG1 LALA; very low expression yield; also called VH3230/VK1393 IgG
B16: PR002742 (antibody, human IgG1, lambda, L234A L235A, V domains shown)
VH: B4 VH with L5V, R19K, P41S, S49G, S79N, L81A, R89K, A90T, V99T
VL: B4 VL
notes: humanized SP34 variant, IgG1 LALA; also called VH3730/VL7461 IgG
B17: PR002833 (antibody, human IgG1, lambda, L234A L235A, V domains shown)
VH: B4 VH with N30S, D76N, S79N
VL: B4 VL
notes: humanized SP34 variant, IgG1 LALAPG; also called VH3234/VL7461 IgG
B18: PR000512 (antibody, human IgG1, lambda, L234A L235A, V domains shown)
VH: B4 VH with L5V, R19K, P41S, S49G, R89K, A90T
VL: B4 VL
notes: humanized SP34 variant, IgG1 LALA; also called VH3731/VL7461 IgG
B19: PR002837 (antibody, human IgG1, lambda, L234A L235A, V domains shown)
VH: B4 VH with L5V, R19K, N30S, P41S, S49G, S79N, L81A, R89K, A90T
VL: B4 VL
notes: humanized SP34 variant, IgG1 LALAPG; also called VH3734/VL7461 IgG

T1 sequence (P07766 23-207, chain 1 of 4): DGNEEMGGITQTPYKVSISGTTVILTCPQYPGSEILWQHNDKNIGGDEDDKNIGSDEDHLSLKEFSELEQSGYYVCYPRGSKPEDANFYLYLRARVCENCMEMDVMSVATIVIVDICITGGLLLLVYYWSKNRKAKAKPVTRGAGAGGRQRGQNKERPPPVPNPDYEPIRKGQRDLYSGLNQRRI
T1 sequence (P09693 23-182, chain 2 of 4): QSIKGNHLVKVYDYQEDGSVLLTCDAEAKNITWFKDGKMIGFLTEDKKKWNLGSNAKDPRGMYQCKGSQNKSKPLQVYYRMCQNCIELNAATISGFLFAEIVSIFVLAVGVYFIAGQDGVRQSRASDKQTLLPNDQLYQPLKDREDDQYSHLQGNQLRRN
T1 sequence (P04234 22-171, chain 3 of 4): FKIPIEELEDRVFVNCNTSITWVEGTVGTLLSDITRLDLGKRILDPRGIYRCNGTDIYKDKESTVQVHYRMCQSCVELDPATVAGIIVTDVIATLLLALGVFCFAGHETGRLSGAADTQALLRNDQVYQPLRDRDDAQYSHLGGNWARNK
T1 sequence (P20963 22-164, chain 4 of 4): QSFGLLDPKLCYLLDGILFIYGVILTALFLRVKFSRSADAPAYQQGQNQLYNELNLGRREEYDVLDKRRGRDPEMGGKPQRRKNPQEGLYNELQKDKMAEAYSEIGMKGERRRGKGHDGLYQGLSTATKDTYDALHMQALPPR

One experiment addresses T1, human CD3 (human, UniProt P07766 23-207; P09693 23-182; P04234 22-171; P20963 22-164).
T1 construct: whole, on cells; SP34 is described as an anti-human CD3e antibody; also called human TCR/CD3 complex; CD3 on human pan-T cells
The experiment is described as follows: flow cytometry on human pan-T cells.
Turning to B1, the binding result is given as “binds”.
On the same count and under the same terms, the entry for B2 is “binds”.

A further experiment concerns the target T1, human CD3. The experiment is described as follows: flow cytometry on recombinant CHOK1 cells overexpressing human CD3. The source says: The flow cytometryFACS was used to analyse the binding of the CD3 antibody to CD3-expressing cells, where the CD3-expressing cells could be: CHOK1 cells overexpressing human CD3 or HEK 293 cells (plasmids encoding the ORF of γ, δ, ε, and ζ chains of human-derived CD3 and plasmids encoding the ORF of α and β chains of human TCR were co-transfected with host cells CHOK1 (ATCC, CCL-61) or HEK293 (ATCC, CRL-1573) to construct stable cell lines expressing the structure of the human TCR/CD3 complex); CHOK1 or HEK293 cells overexpressing cynomolgus monkey CD3; human pan-T cells (isolated with the human pan-T cell isolation kit (Miltenyi, #130-096-535) from PBMC); cynomolgus monkey pan-T cells. Specifically, the collected cells were washed twice with PBS containing 2% FBS (FACS buffer), and resuspended with FACS buffer, divided into 96 well plates with 1×10⁵ cells per well, centrifuged at 500 g for 5 minutes. The supernatant was discarded, and 100 μl of pre-gradient diluted CD3 antibody was added, then incubating for 1 hour at room temperature and washing twice with FACS buffer. […] The fluorescent luminescence signal value were read by flow cytometry (BD FACS CANTOII or ACEA NovoCyte), and the resulted data were processed and analyzed by software FlowJo v10 (FlowJo, LLC). […]
Background: In flow cytometry, cells or beads pass a laser one at a time.
Turning to B3, the binding result is on record as “binds”.

Another experiment has as its target T1, human CD3. Description: flow cytometry on human pan-T cells; MFI at 7.4 or 10 µg/ml relative to PR000260. The source says:
The flow cytometryFACS was used to analyse the binding of the CD3 antibody to CD3-expressing cells, where the CD3-expressing cells could be: CHOK1 cells overexpressing human CD3 or HEK 293 cells (plasmids encoding the ORF of γ, δ, ε, and ζ chains of human-derived CD3 and plasmids encoding the ORF of α and β chains of human TCR were co-transfected with host cells CHOK1 (ATCC, CCL-61) or HEK293 (ATCC, CRL-1573) to construct stable cell lines expressing the structure of the human TCR/CD3 complex); CHOK1 or HEK293 cells overexpressing cynomolgus monkey CD3; human pan-T cells (isolated with the human pan-T cell isolation kit (Miltenyi, #130-096-535) from PBMC); cynomolgus monkey pan-T cells. Specifically, the collected cells were washed twice with PBS containing 2% FBS (FACS buffer), and resuspended with FACS buffer, divided into 96 well plates with 1×10⁵ cells per well, centrifuged at 500 g for 5 minutes. The supernatant was discarded, and 100 μl of pre-gradient diluted CD3 antibody was added, then incubating for 1 hour at room temperature and washing twice with FACS buffer. The cells were resuspended with FACS buffer diluted with secondary antibody Alexa Fluor 488 AffiniPure Goat Anti-Human IgG, Fcγ fragment specific (Jackson ImmunoResearch, #109-545-098), then incubated at room temperature in the dark for 30 minutes. The cells were washed twice with FACS buffer, and resuspended with 200 μl FACS buffer. The fluorescent luminescence signal value were read by flow cytometry (BD FACS CANTOII or ACEA NovoCyte), and the resulted data were processed and analyzed by software FlowJo v10 (FlowJo, LLC). The software GraphPad Prism 8 was used for data processing and graphical analysis, and parameters such as binding curves and EC50 values can be obtained by four-parameter nonlinear fitting.
FIG. 7(A) to (G) show the binding ability of the CD3 antibodies obtained in the Example 4.2 (including PR000260 and its mutants) to human pan-T cells, respectively. The fluorescence intensity MFI of the CD3 antibody binding to human pan-T cells and the relative ratio relative to the initial antibody PR000260 were calculated when the antibody concentration was 7.4 or 10 μg/ml.
On to B4, for which the binding result is listed as “binds”.
On the same count and under the same terms, the entry for B5 is “binds”; for B6 it is “binds”; for B7 it is “binds”.
Still for that read-out and setting: the entry for B8 is “binds”.
Turning to B9, the binding result is reported as “binds”.
Still for that read-out and setting: the entry for B10 is “binds”; for B11 it is “binds”; for B12 it is “binds”.
Still for that read-out and setting: the value for B13 was “binds”; that for B14 was “binds”; that for B15 was “binds”.
Regarding B16, the binding result is “binds”.
Still for that read-out and setting: the entry for B17 is “binds”.
The same measure, in the same setting: the entry for B18 is “binds”.
Same read-out and setting: the value for B19 was “binds”.

Values taken from patent publication US20220348661A1 (HARBOUR BIOMED SHANGHAI, published 2022).
